In patent publication WO2013078377A1 one finds Kd data, which are given here for one substance.

Assay [1] has as its target human CD98 as used in ELISA, BIACORE and Octet assays (human) (UniProt P08195). As to the kind of experiment: Biacore and Octet.
Assay [2] has as its target cynomolgus monkey CD98 as used in SPR, Octet and ELISA (cynomolgus monkey) (UniProt I7GH21). As to the kind of experiment: Biacore and Octet. A general note: In SPR one partner is held on a chip, and binding of the other changes the refractive index at the surface.

Chain of UniProt P08195 (P08195 206-630 limits assumed, form in doubt): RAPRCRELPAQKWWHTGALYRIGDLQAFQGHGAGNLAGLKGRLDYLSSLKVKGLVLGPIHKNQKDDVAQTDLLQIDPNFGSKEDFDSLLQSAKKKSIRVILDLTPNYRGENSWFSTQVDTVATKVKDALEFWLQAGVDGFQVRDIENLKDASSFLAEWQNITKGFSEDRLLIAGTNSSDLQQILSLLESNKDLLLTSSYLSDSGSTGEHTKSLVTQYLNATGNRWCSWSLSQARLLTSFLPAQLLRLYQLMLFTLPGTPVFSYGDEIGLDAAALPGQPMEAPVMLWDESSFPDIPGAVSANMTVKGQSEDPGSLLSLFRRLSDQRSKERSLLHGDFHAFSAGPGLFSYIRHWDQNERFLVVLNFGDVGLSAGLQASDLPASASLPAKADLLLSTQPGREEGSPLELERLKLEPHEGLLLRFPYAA

“humanized anti-CD98 monoclonal antibody IGN523”: the Kd (in general, a measure of binding affinity in units of concentration) in assay [1] was in the range of 2 to 6 nM; in assay [2] it was 8 to 14 nM.
